In the DeepSol protein solubility set:

test: soluble on expression in E. coli; label from the status in PepcDB or PDB records

Soluble on expression in E. coli, not soluble:
MGSDKIHHHHHHMKIDRLIGIITILLQKERATIPQLAERFEVSCRTIQRDIDAIGQAGIPIVSRQGYGGGLSIADGYKLDKTVLTKKELQAILTGIRSIDSISKTTYGQTLIEKFANGKAAVLAEQDMILIDLASWYQDSLSDKIEQLRQAIFNREKVFFVYYSDKGESERLIEPYLILFKWAAWYVYGYCLTKNEYRLFKLNRLWKLKNTNLTYIPRNIPEGKLEFERYFQTEEIRLTALFDARAKYRLIEEYGPECFTVSEPDKLLFQRSFSNPEYLLQWLLSFGDRVRVIEPPELKANIQEHAKNMLRQDD, MGSDKIHHHHHHMKILYIITGLPTGGAEMMLYKLLSQINQERFEPIVVSLMDRGTLGDRIEALGIPVHTIGMNRGGIPMPVDVWRLVHLVDRLQPDIIQGWMYHGNLAAQFASFLNGNKIPIVWSIHYSIDSLESDKKMTVAIIKFSAYISRLPKQVLFVSQNSKLQHEALGYSSKNSCIIPNGFDTISFSPSLTERVDVRSELSLPHESLLIGLICRYHPMKDHANFIQAAALFLKEHPNINFLMIGQGVDRDNPTLNKLIKELGIGDRISLLGERKDIPRLITSLDIFTSASAYGEAFPLVIGEAMSCGIPCVVTDVGDSGWIVGNTGKVIPPRNPQMLADAWKELIALGEEGRNILGKAARARITEDFALNSVVAKYELVYEKILSNMST, MGSDKIHHHHHHMKIMVITKNILSETAFQNRLQHLDHQVFCTTCLIGEIKESHLFYRKFDAIILSETIPRKEQYLYLKELARVKTPLFLRSEDIPTSEELSISYQYGILNWLRLDATLDTLRENLLLAELNKPIQREDEKLDVEGIKLTAAERALLAVLYSTPKEHLPMERLCKLIYDTEETANNRKKMTKQLTKLNKKIQVGGFKKQGIQNTRYKGYKLHPQLLPYIGELFT, MGSDKIHHHHHHMKISLAPISYCWSKSDVEHFYQQVALSNIDTVYLGETVCSRRRELKFNNYLDLANMLKSHGKHVVLSTMALIEAQSELNELKRAIDNGDFSIEANDMAAVHYAHQAKVPFVCGPTINNYNRTSLNLLHQKGMYRFVMPCELSQQWLNTVINQGDKPAFEIEVLGHGYLPLAHSARCFTAKHYQLPKDKCQTICQRHSKGLLAQTQESQPLLRLNGIQTQSAAQVNLINQIPQMIDMGIDYWRISPNKLTDVAMGSELAHVLAQITEDPFNSKALITKQFNDNKQASIINHHCNGYWLGLPGMDYSLEPNTPAG, MGSDKIHHHHHHMKITKATDITLNDSCYLIYGNPGFGKTSVLKYIPGKTLVIDIDKSSKVLSGCENISIAEVDTHKIWDEWLNVVKELLKGAAEPFDTIVVDNVSELFRACLANLGREGKNHRVPSQADYQRVDFTILDSLRALLQLKKRIVFTAWETSDQWTDENGMIYNRAMPDIRSKILNNFLGLTDVVARLVKKTTEDGEEVRGFILQPSASVYAKNRLDDRKGCKVDELFTTELPS, MGSDKIHHHHHHMKKFIVEPEFWELFPETKIGIVLAKNIDNSMESSAEIKKNLDEANENAEQFLEAAVFSENPVVSVWRKAYQKFKTKKGARSSIENLLKRVDKGKAVGSINPLVDIYNSISLNYGLPAGGEDIDTFAGNLRLTKAVGGEHFLALGDDEADNALPGEICYLDDEGAVCRSWNWRDGQRTMLTEQTKNAFLIIESVDPERGEVLDAATQKLAELSEKYLGGTAQVLLVTKENPEISLD, MGSDKIHHHHHHMKKFTLDYLSPRVVFGAGTASALPDEIGRLGARRPLVLSSPEQRELAKDIVRPIGDRVAGYFDGATMHVPVDVIQKAERAFNDTDADSIIAIGGGSTTGLAKILSMNLDVPSLVIPTTYAGSEMTTIWGVTEGGMKRTGRDPKVLPKTVIYDPLLTVDLPLAISVTSALNAIAHAAEGLYSADLNPVLETMCKQGICALFDAIPRLVAKPTDAEARTDALFGAWMCGTALCHLGMGLHHKLCHTLGGTLNLPHAETHAIVLPHALAYNLPYAAPAERLLQEVAGSSDVPSALYDLARNAGAPLSLAEIGMRPEDIPRVRDLALRDQYPNPRPLESDALETLLVNAFRGRRPDFK, MGSDKIHHHHHHMKKIAIFCHNFFSNGTVKIALSQAEVLQEAGQDVHLFVFHKEGDFMPPENVTIHYLYDAGQKPSLQEQRQHLKAKVAEAEQSGKFSLFLSNSTDCDVVVSGCDFEPCYYFCHCALKQELLMELKRGPVHFWRRWKKAKALIGKKIITVSNGIADELRATSWLKPQSVQTIYNPFRLEEIRKKTQEVIAEIPNVPYMIHVGRVTRQKRHDILFKALRDMPTAPKLVLLCNRPKKARKLAKKYGVEHRIITPGFQHNPYAWIAKAELMLLSSDFEGLPTVVIESLACGTPVVSTDCPHGPNEILTGHLAQYLVPVRQPALLAQKALECLASPPALDNLEILKAVDSQYIAAQYINLAQ, MGSDKIHHHHHHMKKIRLGIYIEDSEYGDRLTCYFMNHYKVQLEIHMYTMKEQLEHLEGEIDIMLSSELDQWNNKYIPLIQIVEETPIESEEGIYFVEKYQEVNRIVEEILKHVGGEVRDLKSEGSLIGQTRLISVYSLADNQYQMPFAMTLSSILSENEKVLLMDFQENSGLSRMLEQSVEHNLDELLVMAESGRYSTNRINSCIGRKHKLDYVYPIENTECLCEINTVICNNLLQMLGKEMHYDCIVLNMGTRFKGFFDILDRCSDIYLVQKKGGISQWREYEFTEELMERGLSNVVERIKLIEPPVITTPVSTCDKLVELWKWNEFGDVIRNMTRGISCAG, MGSDKIHHHHHHMKKISYIFASILLTASLSGCNDFLDVTPSDQYSDASVFTSTEGAQQVLIGAYDWFTNGHYAHYTNQYIFFMPDVMADDAMVNSTGNYNRFVSPYQYSITPSSTYSVDPWIGCYSLIDNCNAILDNLETLPESSERNRIEGESLALRTYAYHYLIRMYAKPVNKYPDNPGVILRLTSSTTDIPRSTVKDCYVQMVNDIEKACTLLTGTSSSSKCYITEQAAHGIAARIYLDLGDYTNGTSHANKALSEITLMSKADYKNKFCENNTETIWYFTCTSTDKQSFLSLPAFWYYCDQDSTYVKDGYSSLGVAKELIDIFDDTDIRKTLFVKIDGKYYKRNGSYVTCKINSRKNDDSDGTKGSGTVAFAEGDYNMMRGSEMYLIIAELAADNNHEDEALAALNKVREARGISAYSGTGDVLKTEIQNERRRELFAEGHRLFDLKRRDLPMDRSNLTLDWSRVGLIPAGSDKLEMPIPQNEIDANGALTIADQNPAYK, MGSDKIHHHHHHMKKLICISLYEDLSMTTYDLSKVDNAELIGIVENASEGTLFVFTCDRPNGSSVIMCPGGGFLKTNLENEGIDFAEWFTKLGITYIVFKYRMPHGNPDVPEQDTRLALKVVREKFPEFCDKLGVMGASIGGYLATFSATLLPDDEKPDFQILMYPVVSVDDRLTHFPCRERMFGHSYSPDKMEQYSPIEHITSGTPAAFIVAAADDAVVSPLNGIMYAARLQKADIPISLHIYPAGGHGFGYNDSFVYKQEWLQELGEWLAKL, MGSDKIHHHHHHMKKRFKYRTLEEMRWEAITLGIDLPLSGDFDVFRDLVDLGSKTIPNRFVDQPMEGNDAQLDGTPGPLTLRRYRKLAEGGAGVIWVEAIAVSREARGNDRQLMLTEETVNSFRSFVAEIKSVSLKTKNFEPYIVAQLTHPGRFGKNRKILFHDKFLDEKYGITEDFPLMSDEELDSLKEQYLRAAKFAKTAGFDAVDIKACHRYLLSELLAAHTREGKYGGSYENRTKLLKDIVRLVRKEVEIDITVRLNLSDFIPYPYGWGSTEEGTLDFTEPGRLLKELEELGVKIINVTASTPYLKPHINRPYDEMGKYNPPEHPIVGAMRLLNLAKLAKETLSKTLVVASGFTWFRQFAPYVAAGMLKNGWCDFVGFGRMTFAYPDYPKDILTKGELDPKKVCITCNKCAELKAAGESCGCVVRDGEVYLPIYRKMEESKKS, MGSDKIHHHHHHMKKYVLSLALLGSLLGASELKYQEFDGFKSPESIFVDKNYVYVSNVGEKLEPLAKDNDGFISKLDKNGKVLEYKFLTHLNAPKGMMEIGKTLYVVDIDVLRGFDLKTKKEIFNLPIKGAIFLNDIEKLDDNTLLVSDTGTGLILKVDLKTKQYDELLKLDLAKFGGPNGLYLDRKKHKLFIAGYHPDGVSGGVVMAYDLNTKELSIIKNEKESYDGIVPYKDGLLVSSWGNNLNGYIYNLDNVKSVKLELPLMKGPADIFIEGNILWIPKMVEGKIFKVELNK
